# Measurements as given in publication PMC6969506 (Proceedings of the National Academy of Sciences of the …, 2020).
# B1: CDTb construct lacking the C-terminal RBD2 (residues 212 to 751; CDTb∆RBD2) (domain or fragment)
# chain: SDWEDEDLDTDNDNIPDSYERNGYTIKDLIAVKWEDSFAEQGYKKYVSNYLESNTAGDPYTDYEKASGSFDKAIKTEARDPLVAAYPIVGVGMEKLIISTNEHASTDQGKTVSRATTNSKTESNTAGVSVNVGYQNGFTANVTTNYSHTTDNSTAVQDSNGESWNTGLSINKGESAYINANVRYYNTGTAPMYKVTPTTNLVLDGDTLSTIKAQENQIGNNLSPGDTYPKKGLSPLALNTMDQFSSRLIPINYDQLKKLDAGKQIKLETTQVSGNFGTKNSSGQIVTEGNSWSDYISQIDSISASIILDTENESYERRVTAKNLQDPEDKTPELTIGEAIEKAFGATKKDGLLYFNDIPIDESCVELIFDDNTANKIKDSLKTLSDKKIYNVKLERGMNILIKTPTYFTNFDDYNNYPSTWSNVNTTNQDGLQGSANKLNGETKIKIPMSELKPYKRYVFSGYSKDPLTSNSIIVKIKAKEEKTDYLVPEQGYTKFSYEFETTEKDSSNIEITLIGSGTTYLDNLSITELNSTPEILDEP
# Biological target: the molecule itself
# Assay: SEC-MALS
protein,measurement,value
B1,stoichiometry N,7
